Laboratory results: patent US7470669B2, “Isolated polypeptide comprising a leptin fragment” (Serono Genetics Institute, S.A., priority 1999, dated 2008)

Legend:
[1] = biological target: T1, Ob-R (Mus musculus, UniProt P48356); settings: Tartaglia et al, 1995; cited from earlier work
T1 sequence (P48356 22-894 isoform P48356-2 limits assumed): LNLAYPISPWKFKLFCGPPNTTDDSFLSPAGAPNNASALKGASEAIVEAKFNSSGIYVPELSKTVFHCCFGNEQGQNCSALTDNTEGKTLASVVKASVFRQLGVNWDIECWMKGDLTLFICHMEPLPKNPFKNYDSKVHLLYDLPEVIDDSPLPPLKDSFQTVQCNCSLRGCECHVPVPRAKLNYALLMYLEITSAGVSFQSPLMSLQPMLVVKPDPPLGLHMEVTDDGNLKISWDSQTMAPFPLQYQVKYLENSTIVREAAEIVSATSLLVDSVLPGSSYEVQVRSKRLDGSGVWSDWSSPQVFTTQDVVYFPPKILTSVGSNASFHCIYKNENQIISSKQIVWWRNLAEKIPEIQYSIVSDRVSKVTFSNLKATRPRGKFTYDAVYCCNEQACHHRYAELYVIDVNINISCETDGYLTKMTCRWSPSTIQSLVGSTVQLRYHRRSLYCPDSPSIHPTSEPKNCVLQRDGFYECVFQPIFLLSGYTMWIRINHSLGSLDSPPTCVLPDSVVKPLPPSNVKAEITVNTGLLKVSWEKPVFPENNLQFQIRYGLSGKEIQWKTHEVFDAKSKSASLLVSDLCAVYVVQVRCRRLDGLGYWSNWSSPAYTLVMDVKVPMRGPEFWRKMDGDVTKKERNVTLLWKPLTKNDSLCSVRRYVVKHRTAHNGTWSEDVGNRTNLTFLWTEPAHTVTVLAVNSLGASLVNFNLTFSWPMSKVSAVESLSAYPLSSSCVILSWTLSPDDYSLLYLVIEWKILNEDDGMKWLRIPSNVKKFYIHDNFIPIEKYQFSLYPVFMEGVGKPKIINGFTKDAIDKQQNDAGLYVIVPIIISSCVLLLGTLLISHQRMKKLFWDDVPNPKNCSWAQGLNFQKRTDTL

[2] = test system: LSR mRNA; experiment: Northern analysis of LSR mRNA in PLC cells preincubated 24 h with leptin; assay type: cell-based, human; settings: preincubated 24 h with 200-400 ng/mL leptin
Method: FIGS. 35A and 35B show graphs of LSR activity and mRNA expression measured in PLC cells preincubated 24 h with leptin. In FIG. 35A, PLC monolayers were incubated 24 h at 37° C. with (o) or without (n) 200 ng/mL human recombinant leptin. After washing with PBS, cells were incubated 30 min at 37° C. with increasing concentrations of human leptin, followed by a 2 h incubation at 37° C. with 0.8 mM oleate and 20 μg/mL ^125I-LDL. Cells were washed, and the amount of oleate-induced ^125I-LDL binding was measured as described previously. Results are shown as the mean of triplicate determinations. In FIG. 35B, PLC monolayers were incubated 24 h at 37° C. with 0, 200, or 400 ng/mL human recombinant leptin. After washing with PBS, the cells were harvested. Total RNA was prepared from the cell pellets, and Northerns were performed to detect LSR mRNA, using GAPDH probe as loading control as described previously. Northern blots were scanned on the Phosphorimager (Molecular Dynamics, Sunnyvale, Calif.). Densitometric analysis of the images was performed using the software ImageQuant. Results are shown as the amount of LSR signal relative to that of GAPDH (mean±SD, n=3/condition). […]

[3] = test system: LSR; experiment: 125I-chylomicron binding to primary rat hepatocytes; assay type: cell-based; settings: 20 ng/mL leptin with 0.5 mM oleate
Method: FIGS. 6A, 6B, and 6C show the effect of leptin on ^125I-LDL and ^125I-chylomicron binding to LSR in primary cultures of rat hepatocytes. For FIG. 6A, primary cultures of rat hepatocytes (48 hours after plating) were incubated at 37° C. for 30 min in the absence (□) or presence (▪) of 50 ng/mL leptin in Buffer A, followed by a 20 min incubation at 37° C. with 0.5 mM oleate. The cells were then washed with ice-cold PBS, precooled for 10 min, and then incubated for 1 h at 4° C. with increasing concentrations of ^125I-LDL in Buffer A. Cells were washed, were lysed in 0.1 N NaOH and were counted for radioactivity. Results are shown as the mean of duplicate determinations. For FIG. 6B, primary cultures of rat hepatocytes were incubated at 37° C. for 30 min with or without 20 ng/mL leptin followed by incubation at 37° C. for 4 h with 6 μg protein/mL ^125I-chylomicrons in the absence or presence of 0.5 mM oleate in Buffer A. The cells were then washed and the ^125I-chylomicrons bound to the cell surface were released into the media by incubation with 10 mM suramin. The media was recovered and the radioactivity was measured. Results are shown as the mean±SD of six determinations. […] The amount of ^125I-chylomicrons bound was determined, and results are shown as means±SD of triplicate (irrelevant) or quadruplicate (anti-LSR) determinations. […]

Which Kd [1] does the source give for “leptin: plasma protein of 16 kDa produced by adipocytes; recombinant human or mouse leptin, species depends on the experiment” here?
Its Kd is 0.7 nM.

What about the “decrease of hepatocyte LSR mRNA relative to GAPDH” value [2] of the same substance?
Its value is 25-35%.

What about the “binding of chylomicrons to rat hepatocytes” value [3] of the same substance?
Its value is “additive stimulatory effect”.
